Assay results: publication PMC3821859, “Role of the Acidic Tail of High Mobility Group Protein B1 (HMGB1) in Protein Stability and DNA Bending”

Legend:
[1] = target: HMGB1 (Homo sapiens, UniProt P09429 1-215); experiment: fluorescence anisotropy; 50 nM DNA; sigmoidal dose-response fit; 10 mM Tris-HCl pH 7.5, 50 mM NaCl, 0.5 mM DTT, 0.1 mM EDTA, 5% glycerol; 25 °C (anisotropy); conditions: protein: recombinant; tags: N-terminal 6xHis with TEV site, not removed; label: 5'-6-FAM on complementary strand; blunt
[2] = target: HMGB1ΔC (Homo sapiens, UniProt P09429 1-185, del186-215); experiment: as above; conditions: protein: recombinant; tags: N-terminal 6xHis with TEV site, not removed; label: 5'-6-FAM on complementary strand; blunt
Sequence of HMGB1ΔC (P09429 1-185, stated change not applied): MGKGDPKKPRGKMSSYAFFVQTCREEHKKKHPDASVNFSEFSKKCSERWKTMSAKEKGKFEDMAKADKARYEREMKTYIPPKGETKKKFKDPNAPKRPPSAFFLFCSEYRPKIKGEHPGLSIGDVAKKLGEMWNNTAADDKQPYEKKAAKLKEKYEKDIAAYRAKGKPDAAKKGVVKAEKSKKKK

Sequence of HMGB1 (P09429 whole entry): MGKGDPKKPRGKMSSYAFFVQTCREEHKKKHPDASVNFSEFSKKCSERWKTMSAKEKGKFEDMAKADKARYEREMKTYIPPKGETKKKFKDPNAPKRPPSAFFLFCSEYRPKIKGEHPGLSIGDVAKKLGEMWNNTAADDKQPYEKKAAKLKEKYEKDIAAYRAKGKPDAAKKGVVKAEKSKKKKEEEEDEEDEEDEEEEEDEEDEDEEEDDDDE

B1: 20-bp dsDNA, 6-FAM (dsDNA)
DNA 1: TACTGTATGAGCATACAGTA
DNA 2: TACTGTATGCTCATACAGTA
With B1 the Kd [1] was 88 ± 5 nM and the Kd [2] was 72 ± 4 nM.
